For assay [1], the target named is T1, peptide #25 of the human ADAM28s peptide array (FTLENFSKWRGS) (human).
T1 construct: 12-mer partial peptide of human ADAM28s, immobilized on an array
T1 peptide: FTLENFSKWRGS
The assay is described as follows: peptide array, HRP-labeled antibody. Here is the method: (§1) Specifically, as shown below, a peptide array consisting of peptides having the residue number of 12 amino acid residues with an offset of 3 amino acid residues were prepared for a sequence covering from the protease domain to the C-terminal of human ADAM28s. HRP-labeled anti-human ADAM28s antibody was reacted with the peptide array.

Assay [2] concerns the target T2, peptide #26 of the human ADAM28s peptide array (ENFSKWRGSVLS) (human).
T2 construct: 12-mer partial peptide of human ADAM28s, immobilized on an array
T2 peptide: ENFSKWRGSVLS
The assay is described as follows: peptide array, HRP-labeled antibody. Here is the method: as §1

In assay [3] the target is T3, fusion protein of region 399-540 of human ADAM28s added to the C-terminal of MBP (human).
T3 chain: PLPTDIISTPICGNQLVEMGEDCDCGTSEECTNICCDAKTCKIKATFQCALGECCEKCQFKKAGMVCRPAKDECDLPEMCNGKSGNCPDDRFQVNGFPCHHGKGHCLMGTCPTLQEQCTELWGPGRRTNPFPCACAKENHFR
The assay is described as follows: Western blotting of MBP fusion proteins. On the technique in general: Immunoblotting shows a protein as a band on a membrane.

Assay [4] concerns the target T4, fusion protein of region 491-540 of human ADAM28s added to the C-terminal of MBP (human).
T4 construct: also called MBP-ADAM28s 491-540
T4 chain: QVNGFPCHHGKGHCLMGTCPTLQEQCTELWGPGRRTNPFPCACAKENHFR
The assay is described as follows: Western blotting of MBP fusion proteins.

B1: anti-human ADAM28 human antibody 211-12 (antibody, V domains shown)
VH: QVQLVQSGAEVKKPGESLKISCKGSGYSFTSYWIAWVRQMPGKGLEWMGIIYPSDSYTRYSPSFQGQVTISADKSISTAYLQWSSLKASDTAMYYCARWSWMGRGFDNWGQGTLVTVSS
VL: DIQMTQSPSSLSASVGDRVTITCRASQDISSYLNWYQQKPGKAPKLLIYGVSTLQSGVPSRFSGSGSGTDFTLTISSLQPEDFATYYCLQYDSLPSTFGQGTKVEIKR
notes: Clone from the HuCAL GOLD phage library, first made as Fab, then converted to IgG (heavy chain constant region IgG1) in HEK293T cells; It was HRP-labeled in the peptide array
For the molecule B1, the binding result in assay [1] and in assay [2] was “binds” throughout.

B2: anti-human ADAM28 human antibody 211-14 (antibody, V domains shown)
VH: QVQLQQSGPGLVKPSQTLSLTCAISGDSVSSNTAAWGWIRQSPGRGLEWLGVIYYRSKWYNDYAVSVKSRITINPDTSKNQFSLQLNSVTPEDTAVYYCARYKESIPEYGFDFWGQGTLVTVSS
VL: DIVMTQSPLSLPVTPGEPASISCRSSQSLLYSNGYIYLNWYLQKPGQSPQLLIYLGSNRASGVPDRFSGSGSGTDFTLKISRVEAEDVGVYYCFQYGGSPLTFGQGTKVEIKR
notes: Clone from the HuCAL GOLD phage library, first made as Fab, then converted to IgG (heavy chain constant region IgG1)
In the case of B2, the binding result in assay [3] and in assay [4] was “binds” each time.

These data come from patent US20150274840A1 (GENEFRONTIER, published 2015).
